Data on 3 substances can be found in PMC12203938.

Where “and” joins values, the source holds several entries; their conditions need not be identical. Equal values may be shown once.

The target of test [1] is rhodanese^(K135C, K174C) with AviTag, biotinylated, Alexa Fluor 647-labelled (UniProt P00586). Description: single-molecule TIRF colocalisation and photobleaching step counting; AF647-labelled client (2 μM) with AF488-labelled sHsp or SSB (4 μM) in 50 mM phosphate buffer pH 7.4 at 42°C for up to 7 h; aliquots cross-linked with BS3 (250 μM), diluted to 1-20 nM; biotinylated FLUC or rhodanese held on a NeutrAvidin coverslip; imaged at 20°C; chance colocalisation subtracted.

In test [2] the target is αB-crystallin with an additional C-terminal cysteine (αB-c_(C176)), Alexa Fluor 488-labelled (human) (UniProt P02511). The description is as above.
Test [3] concerns the target firefly luciferase FLUC^(ΔCys, K141C, K491C), biotinylated, Alexa Fluor 647-labelled (firefly) [luciferase: P08659]. Described as above.
Test [4] has as its target chloride intracellular channel 1, CLIC1^C24 (C59A, C89A, C178A, C191A, C223A), Alexa Fluor 647-labelled (UniProt O00299). Put plainly: single-molecule TIRF colocalisation and photobleaching step counting; AF647-labelled CLIC (2 μM) with AF488-labelled sHsp (4 μM) in 50 mM phosphate buffer pH 7.4 at 42°C for up to 7 h; aliquots cross-linked with BS3 (250 μM), diluted to 1-20 nM; His-tagged CLIC held through a biotinylated anti-6X His antibody on a NeutrAvidin coverslip; imaged at 20°C; chance colocalisation subtracted.

Regarding “single-stranded binding protein (SSB), fluorescently labelled, non-chaperone control (from UniProt P0AGE0 1-178) (natural protein)”, in test [1], the percent colocalised is < 3%.

Consider “αB-crystallin with an additional C-terminal cysteine (αB-c_(C176)), Alexa Fluor 488-labelled (from UniProt P02511 1-175) (natural protein)”, for which the stoichiometry N (subunits/oligomer) in test [2] turned out to be 6. In test [3], this substance had an FLUC subunits in complexes with αB-c of 8 subunits, a colocalised αB-c subunits per complex (1 h) (subunits/complex) of 13 and a percent of client molecules colocalised with the sHsp (within 0.3 h) of 40%. In addition, in test [4], the percent of client molecules colocalised with the sHsp (within 0.3 h) is 20%.

In test [1], “Hsp27 cysteine mutant (Hsp27_(C137S,C207)), Alexa Fluor 488-labelled (from UniProt P04792 1-205) (natural protein)” displayed a percent of client molecules colocalised with the sHsp (within 0.3 h) of 40%. Moreover, in test [3], the FLUC subunits in complexes with Hsp27 (1 h) (FLUC subunits/complex) stood at 5; the FLUC subunits per molecule, in and out of complexes with Hsp27 (0 h) came to 2 subunits; the median FLUC subunits in complexes with Hsp27 (0.6 h) (subunits per complex) came to 20; the percent of client molecules colocalised with the sHsp (after 1 h) turned out to be 17%. For the same substance, the percent of client molecules colocalised with the sHsp (within 0.6 h) in test [3] turned out to be 35%. The stoichiometry N (as a rule, a count of units in the complex or per binding partner) in test [3] (scale: Hsp27:FLUC) was 0.68 and 1.75 and 1.24. The percent of client molecules colocalised with the sHsp (first hour) in test [4] was determined as 15%. Also, the stoichiometry N in test [4] (scale: Hsp27:CLIC) is 0.29 and 0.69.
